The values that follow come from paper PMC10267116, “Structural and functional analysis of a plant nucleolar RNA chaperone-like protein”.

For series [1], the system named is NURC1 1-140 (Arabidopsis thaliana). The series is described as follows: MST. The conditions noted are these: MST: 10 nM labelled RNA, 20 mM Tris-HCl pH 8.0, 150 mM NaCl, 0.1 mg/ml BSA, 1 mM DTT, 0.1% Tween-20, room temperature, 5 min.
In series [2] the target is T1, NURC1 1-160 (Arabidopsis thaliana, UniProt Q9LZ65 1-160).
T1 sequence: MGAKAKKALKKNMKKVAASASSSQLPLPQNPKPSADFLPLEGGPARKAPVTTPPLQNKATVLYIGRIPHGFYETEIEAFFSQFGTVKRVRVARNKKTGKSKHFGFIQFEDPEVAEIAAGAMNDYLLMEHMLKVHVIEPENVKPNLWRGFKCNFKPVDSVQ
The series is described as follows: MST. The conditions noted are these: MST: 10 nM labelled RNA, 20 mM Tris-HCl pH 8.0, 150 mM NaCl, 0.1 mg/ml BSA, 1 mM DTT, 0.1% Tween-20, room temperature, 5 min.

The target of series [3] is T2, NURC1-FL (Arabidopsis thaliana, UniProt Q9LZ65 1-222).
T2 sequence: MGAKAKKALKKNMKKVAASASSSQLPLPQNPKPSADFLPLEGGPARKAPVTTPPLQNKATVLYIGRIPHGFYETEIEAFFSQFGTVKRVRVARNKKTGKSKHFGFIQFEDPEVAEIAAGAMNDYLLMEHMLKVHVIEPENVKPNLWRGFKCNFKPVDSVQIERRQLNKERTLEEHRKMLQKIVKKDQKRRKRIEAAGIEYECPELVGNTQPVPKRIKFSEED
The series is described as follows: MST. Conditions: MST: 10 nM labelled RNA, 20 mM Tris-HCl pH 8.0, 150 mM NaCl, 0.1 mg/ml BSA, 1 mM DTT, 0.1% Tween-20, room temperature, 5 min.

The target of series [4] is T1, NURC1 1-160. The series is described as follows: MST; Kd only in figure/Table S5; MST: 10 nM labelled RNA, 20 mM Tris-HCl pH 8.0, 150 mM NaCl, 0.1 mg/ml BSA, 1 mM DTT, 0.1% Tween-20, room temperature, 5 min. The conditions noted are these: protein: recombinant; tags: 6xHis (pET-28a) removed with thrombin; label: Cy5-UTP incorporated (Cy5-UTP/UTP 1:15).
Series [5] concerns the target T2, NURC1-FL. The description is as above. The conditions noted are these: protein: recombinant; tags: N-terminal 6xHis (pET-28a, NdeI/XhoI) removed with thrombin; label: Cy5-UTP incorporated (Cy5-UTP/UTP 1:15).

The term Kd denotes the free concentration of one partner at which half of the binding sites on the other are occupied at equilibrium, for simple one-to-one binding. High values mean lower affinity, low ones higher affinity. Consider ITS2 FL, for which the dissociation constant (Kd) in series [1] was 0.938 µM; with NURC1 1-160 [2], 0.116 µM; with NURC1-FL [3], 0.228 µM.

B1: ITS2 1-79 (stem I and II) (structured_RNA)
RNA: GGAUCGUCGUCCCUCACCAUCCUUUGCUGAUGCGGGACGGAAGCUGGUCUCCCGUGUGUUACCGCACGCGUUGGCCUAAUU
Regarding B1, the binding result with NURC1 1-160 [4] and with NURC1-FL [5] was “binds” throughout.

B2: ITS2 82-162 (stem III) (structured_RNA)
RNA: GGAGCCAAGGACGCCUGGAGCGUACCGACAUGCGGUGGUGAACUUGAUCCAUUACAUUUUAUCGGUCGCUCUUGUCCGGAA
With B2, the binding result with NURC1 1-160 [4] and with NURC1-FL [5] was “binds” throughout.
